In patent US20240132617A1 (VISTERRA, published 2024):

Molecular target: T1, human C3b (human, UniProt P01024 23-667; P01024 749-1663, limits assumed)
T1 construct: C3b is its two-chain fragment (beta chain plus alpha' chain, without C3a); also called complement component 3b
Experiment: antibody levels measured by capture on human C3b versus Cynomolgus C3b (FIG. 1C and FIG. 1D)
Protocol: In this study, pharmacokinetics of anti-C3b antibodies was determined in non-human primates. First, Ab1 (anti-C3b VHH fused to modified IgG4 Fc) and control Ab (IC12; control antibody) were intravenously administered at 10 mg/kg to Cynomolgus monkeys. Plasma samples were collected pre-administration and at 30 minutes, 6 hr, 24 hr, 48 hr, 120 hr, 336 hr, 456 hr, 672 hr, and 792 hr post administration, and % of antibody remaining was measured.
To confirm that the C3b antibody of the present invention binds to human C3b with high affinity, in addition to Cynomolgus C3b, concentrations of antibodies to human C3b or Cynomolgus C3b were measured.

T1 sequence (P01024 23-667 limits assumed, chain 1 of 2): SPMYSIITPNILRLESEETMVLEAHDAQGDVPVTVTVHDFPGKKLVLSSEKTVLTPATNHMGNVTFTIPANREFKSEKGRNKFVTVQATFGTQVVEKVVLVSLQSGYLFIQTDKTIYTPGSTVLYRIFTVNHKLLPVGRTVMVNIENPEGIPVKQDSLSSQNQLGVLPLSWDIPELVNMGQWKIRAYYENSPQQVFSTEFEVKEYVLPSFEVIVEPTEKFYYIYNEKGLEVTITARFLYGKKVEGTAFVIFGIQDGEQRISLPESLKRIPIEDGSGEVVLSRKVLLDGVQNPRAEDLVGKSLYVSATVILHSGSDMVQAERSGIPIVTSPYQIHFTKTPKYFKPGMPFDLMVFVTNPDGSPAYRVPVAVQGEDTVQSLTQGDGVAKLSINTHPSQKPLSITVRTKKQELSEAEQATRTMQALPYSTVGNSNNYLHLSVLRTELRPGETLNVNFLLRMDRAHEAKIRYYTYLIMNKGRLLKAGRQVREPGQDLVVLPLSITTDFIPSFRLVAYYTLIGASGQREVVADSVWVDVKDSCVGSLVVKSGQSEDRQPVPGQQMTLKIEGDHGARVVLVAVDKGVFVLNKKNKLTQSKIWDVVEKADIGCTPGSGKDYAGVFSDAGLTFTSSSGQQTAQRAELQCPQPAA
T1 sequence (P01024 749-1663 limits assumed, chain 2 of 2): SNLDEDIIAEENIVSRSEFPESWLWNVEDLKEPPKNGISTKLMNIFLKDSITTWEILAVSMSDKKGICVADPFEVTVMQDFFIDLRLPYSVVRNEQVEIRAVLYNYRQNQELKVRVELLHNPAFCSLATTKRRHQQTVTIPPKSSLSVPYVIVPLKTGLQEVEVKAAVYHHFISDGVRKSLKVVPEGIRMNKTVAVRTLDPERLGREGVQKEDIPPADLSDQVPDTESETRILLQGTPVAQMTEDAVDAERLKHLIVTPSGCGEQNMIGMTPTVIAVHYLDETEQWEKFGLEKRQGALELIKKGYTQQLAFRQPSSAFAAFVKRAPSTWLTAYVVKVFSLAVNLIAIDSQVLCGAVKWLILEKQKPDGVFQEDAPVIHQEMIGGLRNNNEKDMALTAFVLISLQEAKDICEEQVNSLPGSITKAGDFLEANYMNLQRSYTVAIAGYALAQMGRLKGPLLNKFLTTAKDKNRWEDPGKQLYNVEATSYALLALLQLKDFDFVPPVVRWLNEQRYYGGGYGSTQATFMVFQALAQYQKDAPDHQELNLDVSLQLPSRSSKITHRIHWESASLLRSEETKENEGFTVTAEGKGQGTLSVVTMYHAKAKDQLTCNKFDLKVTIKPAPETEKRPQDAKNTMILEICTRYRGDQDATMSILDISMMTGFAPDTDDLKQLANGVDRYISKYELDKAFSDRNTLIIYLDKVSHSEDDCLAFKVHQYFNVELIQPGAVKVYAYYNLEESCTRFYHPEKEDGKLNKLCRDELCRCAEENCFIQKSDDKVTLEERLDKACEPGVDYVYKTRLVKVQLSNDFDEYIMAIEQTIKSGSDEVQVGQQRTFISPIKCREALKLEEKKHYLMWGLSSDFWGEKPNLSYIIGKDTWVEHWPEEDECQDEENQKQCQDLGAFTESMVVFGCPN

fold greater affinity as compared to Cynomolgus C3b: ~100 fold
B1: Ab1 (anti-C3b VHH fused to modified IgG4 Fc) (Fc fusion)
chain: EVQLLESGGGLVQPGGSLRLSCAASGRTFSNYHMGWFRQAPGQGREFVATIIRTGTTIYYADSVKGRFTISRDNSKNTLYLQMNSLRAEDTAVYYCAAATSGWHIKTVTPYEYWGQGTLVTVSSESKYGPPCPPCPAPEVEGGPSVFLFPPKPKDTLMISRTPEVTCVVVGVSQEDPEVQFNWYVDGVEVHNAKTKPREEQFNSTYRVVSVLQVLHVDWLNGKEYKCKVSNKGLPSSIEKTISKAKGQPREPQVYTLPPSQEEMTKNQVSLTCLVKGFYPSDIVVEWESNGQPENNYKTTPPVLDSDGSFFLYSRLTVDKSRWQEGNVFSCSVMHEALHNHYTQKSLSLSLGK
notes: In the assay Ab1 was in plasma of dosed Cynomolgus monkeys; also called anti-C3b Ab1; C3b antibody
